The nature of this data set: soluble on expression in E. coli; label from the status in PepcDB or PDB records.
On to “MSLMEDVGKEMSKIIQKRDINERYEELVNEVLKDQDVQAFIQANRERLTDEDIRKSYAKLYEFVQEKKKFQVNDPAMIAPGYEPRLMLNFHYIDVTYVPTADLIARQKEEEIRNRVRAMDMPKDVREANLRDFDPSSQGRAKALAEAMQFLREYPATPKEFHKGLYLQGPFGVGKSFLLGAMANALAERGFTTTIVHFPTFTVEMKQAIGRDQVGEKLDAVKKSPILMIDDIGAESMTSWIRDDVLSVILQYRMQEQLVTFFSSNLDLKALEEHLTVTQRGEQEPLKARRIMERVRYLSKEITMTGNDRRNGEGHHHHHH”, for which the “soluble on expression in E. coli” value is “soluble”. The entry for “MAQDIKNEEVEEVQEEEVVKTAEETTPEKSELDLANERADEFENKYLRAHAEMQNIQRRANEERQNLQRYRSQDLAKAILPSLDNLERALAVEGLTDDVKKGLGMVQESLIHALKE” is “not soluble”; for “MQVIAFIAPLIDKGMDPLTGVPIRQEVPRLMERTFQENQAETYVLFLINLDRFKLVNDSLGEGYGDQVLQTLVRRLLWQLPNQQWIARVSGDEFIACAAIKGELPKKETLATYISSIIQQPFQVDEVQFTMTASIGAAVYPMDGKSVEMIWNSLERALRHAKARGGNCVSWFCQELKDEWIHPFRLENDLRRAVENQELEHHHHHH” it is “not soluble”. In the case of “MFDKHTHTLIAQRLDQAEKQREQIRAISLDYPEITIEDAYAVQREWVRLKIAESRTLKGHKIGLTSKAMQASSQISEPDYGALLDDMFFHDGSDIPTDRFIVPRIEVELAFVLAKPLRGPNCTLFDVYNATDYVIPALELIDARCHNIDPETQRPRKVFDTISDNAANAGVILGGRPIKPDELDLRWISALMYRNGVIEETGVAAGVLNHPANGVAWLANKLAPYDVQLETGQIILGGSFTLPVPARKGDTFHVDYGNMGSISCRFV”, the “soluble on expression in E. coli” value was “not soluble”. As to “MSAGPIVERNQDATIYVGGLDEKVSESILWELMVQAGPVVSVNMPKDRVTANHQGFGFVEFMGEEDADYAIKILNMIKLYGKPIKVNKASAHEKNMDVGANIFVGNLDPEVDEKLLYDTFSAFGVILQVPKIMRDVDSGTSKGFAFINFASFEASDTALEAMNGQFLCNRAITVSYAFKRDSKGERHGTAAERMLAAQNPLFPKDRPHQVFSDVPLGVPANTPLAMPGVHAAIAAHATGRPGYQPPPLMGMAQSGYQGQYPPVPPPPPSVTPMPPPMPPTPGMTPRPPPPPSSGMWPPPPPPPPGRTPGPPGMPGMPPPPPPSRFGPPGMGGMPPPPPPGMRYPGGMPPPPPPRYPSAGPGMYPPPPPSRPPAPPSGHGMIPPPPPPS”, the “soluble on expression in E. coli” value was “not soluble”. The entry for “MHHHHHHSSGVDLGTENLYFQSMNNVEKPDNDEDESEVPSLPLGLTGAFEDTSFASLCNLVNENTLKAIKEMGFTNMTEIQHKSIRPLLEGRDLLAAAKTGSGKTLAFLIPAVELIVKLRFMPRNGTGVLILSPTRELAMQTFGVLKELMTHHVHTYGLIMGGSNRSAEAQKLGNGINIIVATPGRLLDHMQNTPGFMYKNLQCLVIDEADRILDVGFEEELKQIIKLLPTRRQTMLFSATQTRKVEDLARISLKKEPLYVG” is “soluble”. Turning to “GPGSMSYSGRKLKYFVEDSDGWLRRNQQVAEQFVMAEDDRETKEMLSLLAPRAHFASFWGVVRGLPAAVALQAQEREHLRITWTSGLQPLTSRTFARNGYVHVLDRERMSFIPVLGPWLSSFFQRPVQELLVVREGRVVFRGMGYVWDIGKH”, the “soluble on expression in E. coli” value was “not soluble”.

For “MDEIDLRILKILQYNAKYSLDEIAREIRIPKSTLSYRIKKLEKDGVIKGYYAYINPASLNLDYIVITSVKAKYGKNYHVELGNKLAQIPGVWGVYFVLGDNDFIVMARYKTREEFMEKFLERVMSIPEVERASTQVVVKIIKESPNIVIF”, the “soluble on expression in E. coli” value is recorded as “soluble”.

Take “GFIDTHVHSGHRALHKLLADGGRPDLFGQPYMDVTIARDGTRIKGYPNYLSREEAAVDPGIALHAAFTVAELLRNGVTTFVELGGHVMVQEALWRECERLGVRGYLGAGYDSGRWAADDQGRLRRVPYPDGGDHLFEEAVAFIKRVQAAGNDLVNGILVPREVENCSVDILRRTVQAAQELGVPMATHAGYNVIEFYETVREHRMTPIELLHSVGMLGPRLNIGHANLISDSPRLNYSGGRDLALMGEHRVSISHCPINIVRRARVLDSWKKYREAGVNLTIGSDTYPRDMVMNMRTASYHGKVMSHDLTAASAAEVFEAATLGGARSLGRTDI”: the “soluble on expression in E. coli” value is given as “not soluble”.

With “MCGIFAYLNFLTPKKRSEIVDILVQGLQRMEYRGYDSAGIAIDGSNEIESPHSSVALLRKAGKVSVLSDFIKESSSDLDMDMEYNIHCGIAHTRWATHGSPRDVNSHPHRSNDKNEFLVVHNGIITNYREIKEYLEKKGHKFESETDTEVIAKLAQHIHDRYPDFSFRQLVETVIQQLEGAFALAFKSSRFPGQLVASRRGSPLLVGIKSNSRLQTNHFPVSFSKDAGWKWGDEKQTDGRRFMSNHATHLRDETSFVETPNNILDLSIAVRSSNGSAKMEISDSTTAVRPFDSDDWEVEYFVASDAAAIIEHTKQVLFLEDDDVAFVEDGALTIHRISRHADNGEQKREVKLLEMELQEIMKGSFKTYMQKEIFEQPDSVVNTMRGRVLPSGQVVLGGIKEYLPDIKRCRRLIMVACGTSYHSAIACRQILEELSELPVVVELASDFLDRETPIFRDDVCLFISQSGETADTLLALRYCKPRGALTIGVTNTVGSSICRESHCGIHINAGPEIGVASTKAYTSQILSLLMFALTLSDDRISMAKRREEIIDALNDLPELIREVLQLDEKVLDIAKQIYKEKSLLIMGRGLNFATCLEGALKIKELSYMHCEGIMSGELKHGPLAMVDEFLSICMVVCNDRVYKKSLNALQQVVARKGAPIIIADCTVPEGDLAGMKHILRVPKTVDCVQNILTVIPLQLLSYHIAELNGANVDRPRNLAKSVTVE”, the “soluble on expression in E. coli” value is reported as “not soluble”.

“MGHHHHHHSHMRKTLIALMFATALPAIAMAAPPAPPAGAPDADAPGMHMQRGDRGPGMHRGPGPLKELDLTREQRQQIDRLMREQMHERREITQNYLEKMPAADQKAMRDEIEAKRSKTDSEVRALLKPDQQKQFDEIKKKEDERRAEWAEFKAWKAAKTAKAQ”: the “soluble on expression in E. coli” value is “soluble”. The entry for “PVLATQWNNYQQSRAAEAYSQLEKGVPPEVLNKAWEEAQQYNANLGDIDPGDAWTSSDDESSSAYQRYLNYLSALNETEAMGRIVLPSIKSDLPIFHGTSDRVLARGVGHLYGTDLPVGAPGELGEDGVIPPAPPEGRLS” is “not soluble”.

“MSLGAKPFGEKKFIEIKGRRMAYIDEGTGDPILFQHGNPTSSYLWRNIMPHCAGLGRLIACDLIGMGDSDKLDPSGPERYAYAEHRDYLDALWEALDLGDRVVLVVHDWGSALGFDWARRHRERVQGIAYMEAIAMPIEWADFPEQDRDLFQAFRSQAGEELVLQDNVFVEQVLPGLILRPLSEAEMAAYREPFLAAGEARRPTLSWPRQIPIAGTPADVVAIARDYAGWLSESPIPKLFINAEPGALTTGRMRDFCRTWPNQTEITVAGAHFIQEDSPDEIGAAIAAFVRRLRPAHHHHHH”: the “soluble on expression in E. coli” value is “soluble”. The entry for “MGSDKIHHHHHHMKWRGYLTPVTENYLHAYGVGYISYVLARKFHVDSVKAFVTGTLHDLGGAVPADERVTVAESIGISLNDEEREVPLLVHAKLGKYFAQTLFDITDEDMLNAILFHTTCIDRASDLVKIVFLADKIRWDRNGTPPYLDGLLAALEISLDDGCSYFLKWLWNSDLYIVHPYLSRSYGAYVRQQQYNPISLQDFSVLQGNLNENLVKKYYLHDIYQEFHRTFYHAHLASVLASKHSVNTEEAYVTSALVNMTNTIKDDELETIASVLNLNVQVPIRPQLTSILARDEYGITSLEMLKTLKSFPQIPSNHNSLLWVVVMSWICQKSIKCEVEDE” is “not soluble”; for “MLEILGKASSINVRKVLWTCAELDLPYRREDWGSGFRDTHAAEFLALNPNAMVPVLRDGELVLWESNSIIRYLANRYAGERLYPQQAAPRARVDQWLDWQASDLNRSWSYAFMSLVRQSPAHRDAAQVEASLRGWTGFMEILEGQLLRTGAYVAGETFSLADIAIGLSVNRWYETPFEHPSLPAVRAYYERLGAR” it is “not soluble”.

The values above are taken from the DeepSol protein solubility set.
